According to the MegaScale stability set (Tsuboyama et al. 2023):

B1: 2K2A (parent)
chain: ELREAFRLYDKEGNGYISTDVMREILAELDETLSSEDLDAMIDEIDADGSGTVDFEEFMGVMT

Variants of: B1
Assay: folding stability dG (cDNA display proteolysis); higher = more stable
Conditions: PBS, room temperature

Folding stability dG [kcal/mol] of substitutions, site by site:
F55: I 1.47, P -0.144, E 1.33, G -0.263, M 1.31, T 0.148, K 0.132, Q 0.578, A 0.686, D -0.867, L 1.66, N -0.55, C 0.683, S 0.161, W 1.75, V 1.32, Y 1.88, R 0.375, H 0.24
S50: Y 1.05, M 1.29, G 1.05, Q 1.12, A 1.11, K 1.78, P 0.13, E 0.94, V 1.18, H 1.16, D 1.33, N 1.67, L 1.22, T 1.88, I 1.14, F 0.991, R 1.61, W 0.737, C 1.39
G49: H 1.94, C 1.71, N 1.84, Q 1.77, Y 1.04, L 1.29, P 0.091, E 1.26, V 0.799, F 1.01, D 1.42, I 0.499, K 1.99, T 0.928, W 0.635, M 1.43, A 1.5, R 1.95, S 1.63
G60: I 2.39, C 2.25, N 2.15, D 1.75, V 2.13, M 2.5, Y 2.57, R 2.82, L 2.46, T 2.37, A 2.53, K 2.69, P 0.712, S 2.29, F 2.49, E 1.85, Q 2.32, H 2.48, W 2.79
E57: R 2.48, W 1.55, M 2.37, H 2.18, D 1.72, C 2.01, K 2.58, S 2.39, L 1.9, V 2.26, P 0.106, G 2.33, A 2.47, Q 2.48, T 2.46, Y 1.58, F 1.47, N 2, I 1.97
T63: C 2.18, D 1.26, K 1.97, G 1.85, A 1.97, H 1.76, E 1.66, F 1.56, I 2.07
D46: C 0.854, E 0.581, N 1.46, A 0.858, R 0.799, M 0.648, V 0.984, L 0.716, Y 0.647, H 0.812, P -0.155, W 0.628, S 0.962, G 0.581, T 0.826, K 0.845, F 0.726, I 0.796, Q 0.665
A47: Y 1.62, S 1.8, W 1.96, N 1.62, V 1.91, E 1.4, P 1.92, M 1.64, T 1.84, Q 1.93, R 2.06, H 1.96, L 1.78, D 1.06, I 1.86, F 1.69, K 2.2, C 1.97, G 1.57
F58: Q -0.946, C 0.529, E -0.986, N -0.854, A 0.332, L 0.779, W 1.69, M 0.426, T -0.411, I 0.406, V 0.336, Y 1.6
M62: K 0.674, L 1.5, Q 0.539, S 0.277, A 0.857, I 1.48, D 0.171, G 0.514, V 1.34, N 0.258, H 0.762, Y 1.58, W 1.83, P 0.128, F 2.04, R 0.711, T 0.559, E -0.063, C 1.81
V61: H 1.67, K 1.32, G 1.49, W 3.03, N 0.566, P 0.265, E 0.207, R 1.16, I 2.12, C 1.86, L 2.06, D -0.74, M 1.83, S 1.26, T 1.21, Y 2.69, Q 0.902, F 2.75, A 2.2
T52: P -0.373, C 1.15, A 1.11, M 1.74, H 1.69, E 1.28, F 1.53, Q 1.68, G 1.02, W 1.31, I 1.64, S 1.45, V 1.55, L 1.65, R 1.87, Y 1.52, N 1.49, D 0.729, K 1.74
D54: L 1.43, W 1.72, Y 2, M 1.76, T 2.36, P 1.14, S 2.43, E 1.33, I 1.27, F 1.79, Q 1.63, C 1.51, G 2.07, H 1.68, N 2.26, K 1.57, A 1.78, V 1.38, R 1.73
D48: K 1.57, W 1.24, N 1.84, H 1.51, V 1.18, Y 1.3, L 1.38, G 1.37, A 1.48, Q 1.31, R 1.52, M 1.33, C 1.4, P 0.465, E 1.48, F 1.39, I 1.24, S 1.57, T 1.6
I45: S 0.36, P -0.366, K -0.192, L 1.74, Q 0.111, Y 1.05, M 1.93, T 0.714, N -0.113, V 1.57, R 0.158, W 1.32
G51: C 0.991, D 0.686, T 0.424, I 0.064, N 1.18, R 1.35, S 0.834, A 0.849, P -0.745, L 0.92, F 0.853, Y 0.517, H 1.39, M 1.15, K 1.27, W 0.564, E 0.622, V 0.029, Q 1.01
M59: C 1.7, N 0.889, L 1.91, G 0.537, P -0.961, R 1.96, T 1.49, H 1.2, I 2.03, V 2.18, Q 1.65, D 0.144, W 1.4, A 2.04, F 2.03, K 1.81, Y 2.02, S 1.77, E 1.41
V53: L 1.58, A 0.162, I 2.37, W 0.916, K -0.419, Q -0.515, H 0.004, G -0.308, Y 0.679, P -0.828, F 1.07, C 0.799, S 0.029, T -0.067, R -0.087, M 0.875
E56: G 1.56, W 1.99, Y 2.02, A 1.78, S 1.75, D 1.84, C 1.92, F 2.04, H 1.88, T 1.69, P 1.21, M 1.64, L 1.88, I 1.87, K 1.77, Q 1.9, R 1.78, N 1.86, V 1.75
